The text below walks through data of article PMC3433420, “Comprehensive Binary Interaction Mapping of SH2 Domains via Fluorescence Polarization Reveals Novel Functional Diversification of ErbB Receptors” (PLoS ONE, 2012).

Several values for one entry are separate records, joined by “and”; a condition that tells them apart may be missing. Equal entries are not always repeated. Non-standard residues stand in square brackets, D forms with d. No end group written: not given here. pY = N[C@@H](Cc1ccc(OP(=O)(O)O)cc1)C(=O)O; Rhodamine = not defined here

Common to all, as to assay: peptide or protein array; SH2/PTB proteins spotted on aldehyde slides, rhodamine peptide titrated in buffer B (20 mM HEPES, 100 mM KCl, 0.1% Tween-20, 5 mM DTT, pH 7.8), 1 h at room temperature; replicate assays
Settings in all cases: both partners purified

Assay [1] has as its target T1, SH2B3 SH2 domain (human, UniProt Q9UQQ2 364-462).
T1 construct: SH2B3, human; source: bacterial expression, purified

For assay [2], the target named is T2, SHC1 domain construct (human).
T2 chain: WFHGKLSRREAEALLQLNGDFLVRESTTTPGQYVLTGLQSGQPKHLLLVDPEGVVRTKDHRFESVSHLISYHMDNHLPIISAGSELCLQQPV

The target in assay [3] is T3, ABL2 SH2 domain (human, UniProt P42684 173-263).
T3 construct: ABL2, human; source: bacterial expression, purified
T3 sequence (looked up): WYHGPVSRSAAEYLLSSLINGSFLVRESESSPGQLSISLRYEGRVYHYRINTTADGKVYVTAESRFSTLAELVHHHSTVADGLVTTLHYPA

For assay [4], the target named is T4, SOCS5 SH2 domain (human, UniProt O75159 381-476).
T4 construct: SOCS5, human; source: bacterial expression, purified
T4 sequence (looked up): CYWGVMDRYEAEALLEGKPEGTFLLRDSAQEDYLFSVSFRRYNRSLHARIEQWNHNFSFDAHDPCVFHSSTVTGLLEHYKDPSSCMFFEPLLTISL

In assay [5] the target is T5, GRB10 SH2 domain (human, UniProt Q13322 493-574).
T5 construct: GRB10, human; source: bacterial expression, purified
T5 sequence (looked up): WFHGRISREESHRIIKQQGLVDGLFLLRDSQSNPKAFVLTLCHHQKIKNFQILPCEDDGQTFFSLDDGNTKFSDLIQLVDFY

The target in assay [6] is T6, ABL1 SH2 domain (human, UniProt P00519 127-217).
T6 construct: ABL1, human; source: bacterial expression, purified
T6 sequence (looked up): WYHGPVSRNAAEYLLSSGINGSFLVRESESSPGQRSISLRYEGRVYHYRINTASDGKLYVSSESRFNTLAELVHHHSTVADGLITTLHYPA

In assay [7] the target is T7, PTK6 SH2 domain (human, UniProt Q13882 78-170).
T7 construct: PTK6, human; source: bacterial expression, purified
T7 sequence (Q13882 78-170): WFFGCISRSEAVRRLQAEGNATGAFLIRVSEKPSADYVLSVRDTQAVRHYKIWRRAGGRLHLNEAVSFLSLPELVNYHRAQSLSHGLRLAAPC

The target of assay [8] is SYK tandem SH2 domains (human).
In assay [9] the target is T8, SH3BP2 SH2 domain (human, UniProt P78314 457-555).
T8 construct: SH3BP2, human; source: bacterial expression, purified
T8 sequence (looked up): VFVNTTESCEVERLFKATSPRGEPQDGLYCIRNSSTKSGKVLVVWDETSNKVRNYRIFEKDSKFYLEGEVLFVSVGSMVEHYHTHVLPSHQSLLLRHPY

The target of assay [10] is T9, BCAR3 SH2 domain (human, UniProt O75815 154-253).
T9 construct: BCAR3, human; source: bacterial expression, purified
T9 sequence (looked up): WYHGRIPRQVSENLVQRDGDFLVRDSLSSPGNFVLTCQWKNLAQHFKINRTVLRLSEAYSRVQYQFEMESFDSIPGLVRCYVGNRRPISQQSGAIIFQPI

Assay [11] concerns the target T10, TNS3 SH2 domain (human, UniProt Q68CZ2 1172-1282).
T10 construct: TNS3, human; source: bacterial expression, purified
T10 sequence (looked up): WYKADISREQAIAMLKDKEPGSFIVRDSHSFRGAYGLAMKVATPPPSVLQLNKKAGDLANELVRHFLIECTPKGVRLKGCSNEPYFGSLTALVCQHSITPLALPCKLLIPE

T1 sequence (Q9UQQ2 364-462): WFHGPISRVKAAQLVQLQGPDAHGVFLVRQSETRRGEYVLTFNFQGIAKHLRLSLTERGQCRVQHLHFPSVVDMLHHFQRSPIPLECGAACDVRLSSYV

As to Rhodamine-ETDG[pY]VAPLTCSD (reading uncertain) [ErbB2 pY1127 phosphopeptide, rhodamine-labelled, for protein microarrays], the Kd in assay [1] was 1380 nM and 2300 nM; in assay [2], 820 nM and 978 nM; in assay [3] it was 17 nM and 14.6 nM; in assay [4], 698 nM; in assay [5], 1900 nM and 2340 nM; in [6] it was 529 nM and 301 nM. Also, the Kd is 4180 nM and 1570 nM in assay [7]; 1300 nM and 957 nM in assay [8]; 1140 nM and 2860 nM in [9]; 726 nM in assay [10]; 5960 nM in [11].
